How the values were obtained:
[1] = molecular target: human PVRIG expressed on cells (human) (UniProt Q6DKI7); test: FACS; Jurkat cells
[2] = molecular target: human PVRIG expressed on cells (human) (UniProt Q6DKI7); test: FACS
[3] = molecular target: mouse PVR protein, recombinant (mouse); test: SPR / ELISA with recombinant proteins

Chain of human PVRIG expressed on cells (human) (Q6DKI7 41-326): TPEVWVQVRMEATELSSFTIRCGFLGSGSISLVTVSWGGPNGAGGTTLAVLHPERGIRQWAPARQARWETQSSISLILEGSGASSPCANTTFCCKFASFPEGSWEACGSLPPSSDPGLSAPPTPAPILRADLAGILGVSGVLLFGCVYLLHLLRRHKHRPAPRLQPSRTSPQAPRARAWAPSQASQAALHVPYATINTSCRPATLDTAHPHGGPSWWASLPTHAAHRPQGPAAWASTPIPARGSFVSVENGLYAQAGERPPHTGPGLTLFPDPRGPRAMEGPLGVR

| Kd [1] [pM] | Kd [2] [pM] | fold lower affinity than the interaction with mPVRL2 [3] [fold] | Substance |
| --- | --- | --- | --- |
| 150 | 298 |  | PVRIG (COM701) |
|  |  | 10 | mouse PVRIG Fc (Fc fusion) |

Reference: US20250136710A1
